Data reported in patent publication US20250163167A1 (SYNTHEKINE, published 2025).

Molecular target: T1, human IL-10 receptor (hIL-10R alpha and beta chains) on HEK-Blue IL-10 reporter cells (human, UniProt Q13651 22-578; Q08334 20-325)
T1 sequence 1: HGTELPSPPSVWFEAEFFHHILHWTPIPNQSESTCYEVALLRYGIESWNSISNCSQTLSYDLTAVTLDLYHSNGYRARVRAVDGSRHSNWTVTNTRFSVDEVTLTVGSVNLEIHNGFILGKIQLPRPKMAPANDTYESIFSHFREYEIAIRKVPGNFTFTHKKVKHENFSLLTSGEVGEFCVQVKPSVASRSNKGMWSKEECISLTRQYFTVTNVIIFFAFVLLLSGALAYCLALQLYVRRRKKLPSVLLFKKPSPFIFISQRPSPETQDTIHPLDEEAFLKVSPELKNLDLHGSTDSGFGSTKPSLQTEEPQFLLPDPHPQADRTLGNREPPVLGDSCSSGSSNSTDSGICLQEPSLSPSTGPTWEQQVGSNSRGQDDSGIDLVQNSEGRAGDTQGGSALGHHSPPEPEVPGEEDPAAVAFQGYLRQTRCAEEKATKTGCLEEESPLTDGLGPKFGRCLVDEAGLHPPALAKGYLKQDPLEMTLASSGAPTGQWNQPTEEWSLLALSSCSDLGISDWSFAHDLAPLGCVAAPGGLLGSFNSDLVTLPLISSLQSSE
T1 sequence 2: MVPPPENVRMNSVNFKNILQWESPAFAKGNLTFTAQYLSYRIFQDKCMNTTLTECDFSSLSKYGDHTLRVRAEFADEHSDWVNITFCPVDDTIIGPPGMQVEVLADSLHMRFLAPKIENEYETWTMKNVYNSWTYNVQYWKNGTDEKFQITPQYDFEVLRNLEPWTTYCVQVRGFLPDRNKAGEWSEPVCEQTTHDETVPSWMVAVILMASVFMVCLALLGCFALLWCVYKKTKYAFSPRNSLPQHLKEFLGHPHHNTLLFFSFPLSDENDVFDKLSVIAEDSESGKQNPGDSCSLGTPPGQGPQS
Experiment: cell-based or functional assay

Row | Binder | Abs 630 (25 nM) | Abs 630 (100 nM)
1 | IL10R binding molecule of SEQ ID NO: 331 (bispecific antibody) QVQLQESGGGSVQAGGSLRLSCTVSRYTASVNYMGWFRQAPGKEREGVATIFTGAGTTYYANSVKGRFTISRDNAKNTAYLQMNSLKPEDTAIYYCAVDFRGGLLYRPAYEYTYRGQGTQVTVSSGGGSQVQLQESGGGSVQAGGSLRLSCGASGYTYSSYCMGWFRQVPGKEREGVAVIDSDGSTSYADSVKGRFTISKDNGKNTLYLQMNSLKPEDTAMYYCAADLGHYRPPCGVLYLGMDYWGKGTQVTVSSASHHHHHH | 0.5 Abs 630 | 0.41 Abs 630
2 | IL10R binding molecule of SEQ ID NO: 334 (bispecific antibody) QVQLQESGGGSVEAGGSLRLSCAASGYTHSSYCMGWFRQAPGKEREGVAAIDVDGSTTYADSVKGRFTISKDNAKNTLYLQMNSLKPEDTGMYYCAAEFADCSSNYFLPPGAVRYWGQGTQVTVSSGGGSQVQLQESGGGSVQAGGSLRLSCAASRFTYSSYCMGWFRQAPGKEREGVASIDSDGSTSYTDSVKGRFTISKDNAKNTLYLQMNSLKPEDTAMYYCALDLMSTVVPGFCGFLLSAGMDYWGKGTQVTVSSASHHHHHH | 1.43 Abs 630 | 1.14 Abs 630
3 | IL10R binding molecule of SEQ ID NO: 335 (bispecific antibody) QVQLQESGGGSVEAGGSLRLSCAASGYTHSSYCMGWFRQAPGKEREGVAAIDVDGSTTYADSVKGRFTISKDNAKNTLYLQMNSLKPEDTGMYYCAAEFADCSSNYFLPPGAVRYWGQGTQVTVSSGGGSQVQLQESGGGSVQAGGSLRLSCAASGYTYSMYCMGWFRQAPGKEREGVAQINSDGSTSYADSVKGRFTISKDNAKNTLYLQMNSLKPEDTAMYYCAADSRVYGGSWYERLCGPYTYEYNYWGQGTQVTVSSASHHHHHH | 0.5 Abs 630 | 0.44 Abs 630
4 | IL10R binding molecule of SEQ ID NO: 338 (bispecific antibody) QVQLQESGGGSVEAGGSLRLSCAASGYTHSSYCMGWFRQAPGKEREGVAAIDVDGSTTYADSVKGRFTISKDNAKNTLYLQMNSLKPEDTGMYYCAAEFADCSSNYFLPPGAVRYWGQGTQVTVSSGGGSQVQLQESGGGSVQAGGSLRLSCGASGYTYSSYCMGWFRQVPGKEREGVAVIDSDGSTSYADSVKGRFTISKDNGKNTLYLQMNSLKPEDTAMYYCAADLGHYRPPCGVLYLGMDYWGKGTQVTVSSASHHHHHH | 0.51 Abs 630 | 0.41 Abs 630
5 | IL10R binding molecule of SEQ ID NO: 339 (bispecific antibody) QVQLQESGGGSVEAGGSLRLSCAASGYTHSSYCMGWFRQAPGKEREGVAAIDVDGSTTYADSVKGRFTISKDNAKNTLYLQMNSLKPEDTGMYYCAAEFADCSSNYFLPPGAVRYWGQGTQVTVSSGGGSQVQLQESGGGSVQAGGSLRLSCAASGYSNCSYDMTWYRQAPGKEREFVSAIHSDGSTRYADSVKGRFFISQDNAKNTVYLQMNSLKPEDTAMYYCKTDPLHCRAHGGSWYSVRANYWGQGTQVTVSSASHHHHHH | 0.49 Abs 630 | 0.42 Abs 630
6 | IL10R binding molecule of SEQ ID NO: 341 (bispecific antibody) QVQLQESGGGSVQAGGSLRLSCAASGYSYSSYCMGWFRQAPGKEREGVATIDSDGMTRYADSVKGRFTISKDNAKNTLYLQMNSLKPEDTAMYYCAAPLYDCDSGAVGRNPPYWGQGTQVTVSSGGGSQVQLQESGGGSVQAGGSLRLSCAASRFTYSSYCMGWFRQAPGKEREGVASIDSDGSTSYTDSVKGRFTISKDNAKNTLYLQMNSLKPEDTAMYYCALDLMSTVVPGFCGFLLSAGMDYWGKGTQVTVSSASHHHHHH | 0.6 Abs 630 | 0.48 Abs 630
7 | IL10R binding molecule of SEQ ID NO: 345 (bispecific antibody) QVQLQESGGGSVQAGGSLRLSCAASGYSYSSYCMGWFRQAPGKEREGVATIDSDGMTRYADSVKGRFTISKDNAKNTLYLQMNSLKPEDTAMYYCAAPLYDCDSGAVGRNPPYWGQGTQVTVSSGGGSQVQLQESGGGSVQAGGSLRLSCGASGYTYSSYCMGWFRQVPGKEREGVAVIDSDGSTSYADSVKGRFTISKDNGKNTLYLQMNSLKPEDTAMYYCAADLGHYRPPCGVLYLGMDYWGKGTQVTVSSASHHHHHH | 0.52 Abs 630 | 0.44 Abs 630

More lines, now with the values ahead:

Row | Abs 630 (25 nM) | Abs 630 (100 nM) | Binder
8 | 0.47 Abs 630 | 0.36 Abs 630 | IL10R binding molecule of SEQ ID NO: 332 (bispecific antibody) QVQLQESGGGSVQAGGSLRLSCTVSRYTASVNYMGWFRQAPGKEREGVATIFTGAGTTYYANSVKGRFTISRDNAKNTAYLQMNSLKPEDTAIYYCAVDFRGGLLYRPAYEYTYRGQGTQVTVSSGGGSQVQLQESGGGSVQAGGSLRLSCAASGYSNCSYDMTWYRQAPGKEREFVSAIHSDGSTRYADSVKGRFFISQDNAKNTVYLQMNSLKPEDTAMYYCKTDPLHCRAHGGSWYSVRANYWGQGTQVTVSSASHHHHHH
9 | 0.49 Abs 630 | 0.54 Abs 630 | IL10R binding molecule of SEQ ID NO: 333 (bispecific antibody) QVQLQESGGGSVEAGGSLRLSCAASGYTHSSYCMGWFRQAPGKEREGVAAIDVDGSTTYADSVKGRFTISKDNAKNTLYLQMNSLKPEDTGMYYCAAEFADCSSNYFLPPGAVRYWGQGTQVTVSSGGGSQVQLQESGGGSVQAGGSLRLSCAASRYLYSIDYMAWFRQSPGKEREPVAVIYTASGATFYPDSVKGRFTISQDNAKMTVYLQMNSLKSEDTAMYYCAAVRKTDSYLFDAQSFTYWGQGTQVTVSSASHHHHHH
10 | 0.54 Abs 630 | 0.45 Abs 630 | IL10R binding molecule of SEQ ID NO: 336 (bispecific antibody) QVQLQESGGGSVEAGGSLRLSCAASGYTHSSYCMGWFRQAPGKEREGVAAIDVDGSTTYADSVKGRFTISKDNAKNTLYLQMNSLKPEDTGMYYCAAEFADCSSNYFLPPGAVRYWGQGTQVTVSSGGGSQVQLQESGGGSVQAGGSLRLSCAVSGYAYSTYCMGWFRQAPGKEREGVAAIDSGGSTSYADSVKGRFTISKDNAKNTLYLRMNSLKPEDTAMYYCAAVPPPPDGGSCLFLGPEIKVSKADFRYWGQGTQVTVSSASHHHHHH
11 | 0.49 Abs 630 | 0.4 Abs 630 | IL10R binding molecule of SEQ ID NO: 337 (bispecific antibody) QVQLQESGGGSVEAGGSLRLSCAASGYTHSSYCMGWFRQAPGKEREGVAAIDVDGSTTYADSVKGRFTISKDNAKNTLYLQMNSLKPEDTGMYYCAAEFADCSSNYFLPPGAVRYWGQGTQVTVSSGGGSQVQLQESGGGSVQAGGSLRLSCTVSGYTYSSNCMGWFRQAPGKEREGVATIYTGGGNTYYADSVKGRFTISQDNAKNTVYLQMNNLKPEDTAMYYCAAEPLSRVYGGSCPTPTFDYWGQGTQVTVSSASHHHHHH
12 | 1.77 Abs 630 | 1.02 Abs 630 | IL10R binding molecule of SEQ ID NO: 263 (bispecific antibody) QVQLQESGGGSVQAGGSLRLSCAASRFTYSSYCMGWFRQAPGKEREGVASIDSDGSTSYTDSVKGRFTISKDNAKNTLYLQMNSLKPEDTAMYYCALDLMSTVVPGFCGFLLSAGMDYWGKGTQVTVSSGGGSQVQLQESGGGSVQAGGSLRLSCAASGYTYSSGCMGWFRQAPGKEREAVAAINSDGSTSYADSVKGRFTISKDNAKNTLYLQMNSLKPEDTAMYYCAAEPYCSGGYPRWSVAEFGYWGQGTQVTVSSASHHHHHH
13 | 0.46 Abs 630 | 0.51 Abs 630 | IL10R binding molecule of SEQ ID NO: 340 (bispecific antibody) QVQLQESGGGSVQAGGSLRLSCAASGYSYSSYCMGWFRQAPGKEREGVATIDSDGMTRYADSVKGRFTISKDNAKNTLYLQMNSLKPEDTAMYYCAAPLYDCDSGAVGRNPPYWGQGTQVTVSSGGGSQVQLQESGGGSVQAGGSLRLSCAASRYLYSIDYMAWFRQSPGKEREPVAVIYTASGATFYPDSVKGRFTISQDNAKMTVYLQMNSLKSEDTAMYYCAAVRKTDSYLFDAQSFTYWGQGTQVTVSSASHHHHHH
14 | 0.45 Abs 630 | 0.36 Abs 630 | IL10R binding molecule of SEQ ID NO: 342 (bispecific antibody) QVQLQESGGGSVQAGGSLRLSCAASGYSYSSYCMGWFRQAPGKEREGVATIDSDGMTRYADSVKGRFTISKDNAKNTLYLQMNSLKPEDTAMYYCAAPLYDCDSGAVGRNPPYWGQGTQVTVSSGGGSQVQLQESGGGSVQAGGSLRLSCAASGYTYSMYCMGWFRQAPGKEREGVAQINSDGSTSYADSVKGRFTISKDNAKNTLYLQMNSLKPEDTAMYYCAADSRVYGGSWYERLCGPYTYEYNYWGQGTQVTVSSASHHHHHH
15 | 0.46 Abs 630 | 0.37 Abs 630 | IL10R binding molecule of SEQ ID NO: 343 (bispecific antibody) QVQLQESGGGSVQAGGSLRLSCAASGYSYSSYCMGWFRQAPGKEREGVATIDSDGMTRYADSVKGRFTISKDNAKNTLYLQMNSLKPEDTAMYYCAAPLYDCDSGAVGRNPPYWGQGTQVTVSSGGGSQVQLQESGGGSVQAGGSLRLSCAVSGYAYSTYCMGWFRQAPGKEREGVAAIDSGGSTSYADSVKGRFTISKDNAKNTLYLRMNSLKPEDTAMYYCAAVPPPPDGGSCLFLGPEIKVSKADFRYWGQGTQVTVSSASHHHHHH
16 | 0.5 Abs 630 | 0.43 Abs 630 | IL10R binding molecule of SEQ ID NO: 344 (bispecific antibody) QVQLQESGGGSVQAGGSLRLSCAASGYSYSSYCMGWFRQAPGKEREGVATIDSDGMTRYADSVKGRFTISKDNAKNTLYLQMNSLKPEDTAMYYCAAPLYDCDSGAVGRNPPYWGQGTQVTVSSGGGSQVQLQESGGGSVQAGGSLRLSCTVSGYTYSSNCMGWFRQAPGKEREGVATIYTGGGNTYYADSVKGRFTISQDNAKNTVYLQMNNLKPEDTAMYYCAAEPLSRVYGGSCPTPTFDYWGQGTQVTVSSASHHHHHH
